Experimental findings from publication PMC8316672 (Journal of Molecular Biology, 2021) are described below.

For the experiment, the target named is SARS-CoV-2 RBD (residues 328–528), deglycosylated, His tag removed (crystallography) (SARS-CoV-2, UniProt P0DTC2). The experiment is described as follows: crystal structure.

B1: Fab 15033 (Fab, V domains shown)
VH: EVQLVESGGGLVQPGGSLRLSCAASGFDLGGYSMHWVRQAPGKGLEWVAGIYASGGATAYADSVKGRFTISADTSKNTAYLQMNSLRAEDTAVYYCARSYYYGGFGMDYWGQGTLVTVSS
VL: DIQMTQSPSSLSASVGDRVTITCRASQSVSSAVAWYQQKPGKAPKLLIYSASDLYSGVPSRFSGSRSGTDFTLTISSLQPEDFATYYCQQSYRYPITFGQGTKVEIK
B1: the binding result is recorded as “binds”.

B2: Fab 15033-7 (Fab, V domains shown)
VH: EVQLVESGGGLVQPGGSLRLSCAASGFDLGGYSMHWVRQAPGKGLEWVAGIYASGGATAYADSVKGRFTISADTSKNTAYLQMNSLRAEDTAVYYCARSYYYGGFGMDYWGQGTLVTVSS
VL: DIQMTQSPSSLSASVGDRVTITCRASQSVSSAVAWYQQKPGKAPKLLIYSASDLYSGVPSRFSGSRSGTDFTLTISSLQPEDFATYYCQQSHTYPITFGQGTKVEIK
Turning to B2, the binding result is recorded as “binds”.
